Measurements published in PMC4601640 (2015).

B1: human full-length Hsp90β (natural protein)
chain: not shown
B2: CK2-phosphorylated human full-length Hsp90β (natural protein)
chain: not shown
modifications: phosphoserine at 255 (shown by Western blot); Ser226 named as a CK2 site, its phosphorylation could not be verified

What was measured:
[1] = target: T1, CK2-phosphorylated human full-length p50^Cdc37 (human, UniProt Q16543 1-378, phosphoserine at 13 (shown by Western blot)); experiment: ITC; phosphorylated Cdc37
T1 chain: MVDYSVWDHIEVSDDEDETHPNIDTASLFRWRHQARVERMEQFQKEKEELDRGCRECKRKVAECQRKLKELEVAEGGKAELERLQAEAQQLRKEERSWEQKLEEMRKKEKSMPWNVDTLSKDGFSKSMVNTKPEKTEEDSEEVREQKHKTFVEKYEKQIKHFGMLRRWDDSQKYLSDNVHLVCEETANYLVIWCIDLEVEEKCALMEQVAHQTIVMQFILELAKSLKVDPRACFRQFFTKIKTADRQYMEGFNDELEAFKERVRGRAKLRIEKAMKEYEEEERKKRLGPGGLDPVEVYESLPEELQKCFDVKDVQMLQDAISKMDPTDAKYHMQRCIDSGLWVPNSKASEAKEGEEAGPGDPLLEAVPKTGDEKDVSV

[2] = target: T1, CK2-phosphorylated human full-length …; experiment: ITC; both phosphorylated

Binder | Kd [1] [nM] | Kd [2] [nM]
B1 | 1400 | –
B2 | – | 1900
